Test results reported in the DeepSol protein solubility set.

test: soluble on expression in E. coli; label from the status in PepcDB or PDB records

Row | Sequence | soluble on expression in E. coli
1 | MPGLPEVAPGDDLAKLIAAVEPGLVDGDVLLVTSKIVSKAEGRIVRADDREAAIDAETVRVVARRGALRIVENRQGLVMAAAGVDASNTPSGTVLLLPEDPDASARAIRDGLRDTLGVDVGVVVTDTFGRPWRTGLTDVAIGAAGVRVLDDLRGGTDAYGNPLSATVVATADELAAAGDLVKGKAAGLPVAVVRGLPHVIAGDDEAGARAMVRGGRDDMFRLGTSEAVREAVTQRRTVRAFTDEPVDPGAVRRAVAAAVTAPAPHHTTPWRFVLLESAESRTRLLDAMRDAWIADLRGDRKTEESIAKRVRRGDVLRNAPYLVVPCMVMDGSHSYGDARRDAAEREMFVVATGAGVQNFLVALAGERLGSAWVSSTMFCRDVVRRALGLPESWEPMGAVAVGHAAEEPRDRPARDAGAFIEVRLEHHHHHH | soluble
2 | MPGTKQVNVGSLKVGQYVMIDGVPCEIVDISVSKPGKHGGAKARVVGIGIFEKVKKEFVAPTSSKVEVPIIDRRKGQVLAIMGDMVQIMDLQTYETLELPIPEGIEGLEPGGEVEYIEAVGQYKITRVIGGK | soluble
3 | MPIPNNPGAGENAFDPVFVKDDDGYDLDSFMIPAHYKKYLTKVLVPNGVIKNRIEKLARDVMKEMGGHHIVALCVLKGGYKFFADLLDYIKALNRNSDRSIPMTVDFIRLKSYCNDQSTGDIKVIGGDDLSTLTGKNVLIVEDIIDTGKTMQTLLSLVRQYNPKMVKVACLFIKRTPLWNGFKADFVGFSIPDHFVVGYSLDYNEIFRDLDHCCLVNDEGKKKYKATSL | soluble
4 | MPIRGFHYRGDEAIYPASVVKLFYLVAALEWLQQGMIQPSAELDRALRDMIVDSSNDATGYIVDLLSGTTSGPELGDGPFKTWQFQRNIVNRYYQSLMWPELQPINVNQKTWGDGPYGRERAFYGPEFENRNKLTTNATARLLHAIAGGVAVSPSASQRMLNLLNRPFDPRSLAEDPENQVTGFLGQDLPQGSQLWSKAGWMSRVRHDAAYLEIPGLPPHLLVAFTEGKEHANNEAILPFIAQQVRQQLQPALEHHHHHH | not soluble
5 | MPIRHCIVHLIEKKPDGTPAVLHARDSELAESQAIENMLADLNESYNAKQGKAWGLFHPESGAHPFSGWLKEYLDGGKDFTAFSRVSVEHLQKLMEESNLSVGGHVLFAHYQQGMTDYLAIALLHHSDGVAVNAELDVTPSRHLDLGQLHLAARINISEWQNNKQSKQYISFIKGKNGKKVSEYFRDFIGCQEGVDGPGETRTLLKAFSDFVESEDLPEESAREKTKTLIDYASSQSKMGEPMGLEALSELIDENQPRAFYDHIRNKDYGLSPEIPADKRTLNQFRRFTGRAEGLSISFEAHLLGDKIEYDETAGTLIIKGLPTQLTDQLKRRLEHHHHHH | not soluble
6 | MPISEPTWAELPFLFKSAVVELLPYKNRCCLRKCSKSDQFLVDSTPNHLHDVAIHTCENYTVFTYSDSPDTVFTLKYFKNIGENDLKIEYSESPVLFVPGKNQKFIFKTSIHVENLASEADDVDFALDDFKLLLNRLNCKKSIINMIPNQYNPIAHPDRTIEFRQRLLDLMTSSFPKKSIKSKSLVIHWHQETQEIAEILQVFHTKTLKNLEFHDRNATWHMAPIIGTEQWKGARSVLLEHLSDVKIEELKDFNEIQMHVRDSGEQELWTVIQNFIRKNLHGSSFHFTYRQAEPNVDRILATFNVPPRDEPITARTRLRSVLGSRFIHTQRFQMPSTDLILVVMISEKEVMGTVCHVDQVNVEAKVERGLLR | not soluble
7 | MPKAKAKTKNTEIISPHHYVYPNTTTLKNKYGIKNLNAFLEKCSHDTAKAMINLREESLPEYFDTAYLCHIHQQLFKNTFEWAGYLRHIPFTFADGTTAAMPEMKRTGWKNAFAIGDEIQEGLQRLDQTLAEKNNLQGLTREEFNSEAIELFNSLNQLHPFREGNGRTQRLFFENLAKAAGHQLNFSLITKERMMVASVAVAENGDLEPMQHLFEDISNPEKIRLLKEFMHTMKNTGRNVNDRPVMVAKEGETYTGTYRGAGLEGFALNVKGAYIIGNIDHLPPEQLKILKPGDKITFTAPK | soluble
8 | MPKGNKKPNEKKEELEKFAKELQGSDSDEDAVVIEQPTVEPKLPQNDSSSSNKIVLSQAEKDLLRTELDKTEEEISTLKQVLSARQKHAAELKRKLGLTPFSELSQDINRSLKTVTDTDAYQKTAEVAAATSDTVKEKWNDMRNSSLFKSFESKLGSALNNAKMAASTSIDHLAGAARGPSQTGTPVAEEAKPIS | soluble
9 | MPKILWKSLHLCFPSNLTKCYSSPCIPPSSADPDGIIQPNRPSIVLLNNFNLLYHNDNHHHPHRVIDLPSSSTTTTPAATSSSSTSSYESDISPDVSAAFASRRFFFSSPGRSNAITDSPEPRSREFSDNYDDATITSTKKKKKKVYDNSVTTTTTRLISGGTAVTQHVDSPDPLTDFRRSMQEMIDAAIDAGELSRDPNDGYDFLDELLLTYLSLNPADTHKFVIRAFSDILVSLLSEERRIC | soluble
10 | MPKKTFENLEDSHGKDVNIPVELPKRKREVTPENLPSTSSTAPTQKRKSLGYSGRTEEPKNIHKTFISPFSTSVSPSKQGLRRRKKALPAIEPPVSVEEASPLRFVNIDVFSRRMASESSDHDAMIAKLLSRKFSIPMEGYMLSGRSLGLGGNRRKCALFDPYHEGALILYAPEHLSEHAQLKEDKDRKVHVVADPVVGKILRPHQRDGVKFMWDCVTGINIPEFHGCIMADEMGLGKTLQCISLLWTLLRQSPDACPTVSKSIIVCPSSLVKNWDKEIKKWLGTRLNAMPVDSGKREQIIACLNSFMADSKMRCAIPVLIISYETFRLYANILHSGDVGIVICDEGHRLKNSENLTYQALSGLKCARRVLISGTPIQNDLLEYFSLVNFVNPGLLGTASEFRKKFENAILKGRDADASSEDQKKGEEKTKEMISLVEKCIIRRTSALLTKYLPVKYEHIICCKNSTLQETLYNKLIECEKQNRIVEKDKGATASALSFITHLKKLCNHPYLVYDEFQKPDNRFRNKCLSIFPESFNPKSFDPSFSGKMKVLDYILAVTRKTTDDKFVLVSNYTQTIDQFMELCKLRGYDFVRLDGSMSIKQRSKIVDTFNDPASTIFCFLLSSKAGGCGLNLIGANRLVMFDPDWNPANDDQAMARVWRDGQKKMCFIYRLLATGSIEEKMFQRQTHKKALSSCVVDAGEDVARHFSSEQLRELFKLESTVASDTHEKLKCKRCIQGVESVDPPTNADCASDLSNWFHSQKSARKVADNVLRAVFECGSISFVFHQKSHNVEVKKVQEKVEEVDEDYVPSEAEENDD | soluble
11 | MPKLVTWMNNQRVGELTKLANGAHTFKYAPEWLASRYARPLSLSLPLQRGNITSDAVFNFFDNLLPDSPIVRDRIVKRYHAKSRQPFDLLSEIGRDSVGAVTLIPEDETVTHPIMAWEKLTEARLEEVLTAYKADIPLGMIREENDFRISVAGAQEKTALLRIGNDWCIPKGITPTTHIIKLPIGEIRQPNATLDLSQSVDNEYYCLLLAKELGLNVPDAEIIKAGNVRALAVERFDRRWNAERTVLLRLPQEDMCQTFGLPSSVKYESDGGPGIARIMAFLMGSSEALKDRYDFMKFQVFQWLIGATDGHAKNFSVFIQAGGSYRLTPFYDIISAFPVLGGTGIHISDLKLAMGLNASKGKKTAIDKIYPRHFLATAKVLRFPEVQMHEILSDFARMIPAALDNVKTSLPTDFPENVVTAVESNVLRLHGRLSREYGSKLEHHHHHH | soluble
12 | MPKPYVAINMAELKNEPKTFEMFASVGPKVCMVTARHPGFVGFQNHIQIGILPFGNRYGGAKMDMTKESSTVRVLQYTFWKDWKDHEEMHRQNWSYLFRLCYSCASQMIWGPWEPIYEIIYANMPINTEMTDFTAVVGKKFAEGKPLDIPVISQPYGKRVVAFAEHSVIPGKEKQFEDAIVRTLEMLKKAPGFLGAMVLKEIGVSGIGSMQFGAKGFHQVLENPGSLEPDPNNVMYSVPEAKNTPQQYIVHVEWANTDALMFGMGRVLLYPELRQVHDEVLDTLVYGPYIRILNPMMEGTFWREYLNEQAWRHPQFGG | soluble
13 | MPKRIVYNISSDFQLKSLLGEGAYGVVCSATHKPTGEIVAIKKIEPFDKPLFALRTLREIKILKHFKHENIITIFNIQRPDSFENFNEVYIIQELMQTDLHRVISTQMLSDDHIQYFIYQTLRAVKVLHGSNVIHRDLKPSNLLINSNCDLKVCDFGLARIIDESAADNSEPTGQQSGMVEFVATRWYRAPEVMLTSAKYSRAMDVWSCGCILAELFLRRPIFPGRDYRHQLLLIFGIIGTPHSDNDLRCIESPRAREYIKSLPMYPAAPLEKMFPRVNPKGIDLLQRMLVFDPAKRITAKEALEHPYLQTYHDPNDEPEGEPIPPSFFEFDHYKEALTTKDLKKLIWNEIFS | soluble
14 | MPKTISVRVTTMDAELEFAIQPNTTGKQLFDQVVKTIGLREVWFFGLQYQDTKGFSTWLKLNKKVTAQDVRKESPLLFKFRAKFYPEDVSEELIQDITQRLFFLQVKEGILNDDIYCPPETAVLLASYAVQSKYGDFNKEVHKSGYLAGDKLLPQRVLEQHKLNKDQWEERIQVWHEEHRGMLREDAVLEYLKIAQDLEMYGVNYFSIKNKKGSELWLGVDALGLNIYEQNDRLTPKIGFPWSEIRNISFNDKKFVIKPIDKKAPDFVFYAPRLRINKRILALCMGNHELYMRRRKP | soluble
15 | MPKWISIDEAAHKYGVKEEDICLWAEMEAITAYFTETTLIIDEKSLQKFMYLRKNLPTTGYIRTLEQLCINQSEVCKLYMEVIELQEKDLQYKKRRISVLERQYAMATKQNKLREKIITITSDMLSKAESGWWEKLWMKISNRQKL | not soluble
16 | MPLEASELKPTAGPLEASELKPTAGPLEASELKPTAGPLEASELKPTAGPLEASELKPTAGPLEASELKPTAGPLEASELKPTAGMKLKGRGIVKGVAEGELVVSRKPLSFLGGVDPNTGIITDPESDIQGEKITGKILAFPRGKGSTVGSYVIYALAKKGTGPKAIIVEEAEAIVAVGAIIAGIPLVTGIDISKLKSGMKVRVDGERGEVEIIAQGDLLEHHHHHH | not soluble
17 | MPLEEGVLIDCTLGLGGHSKALLSQKPHLKLIGIDKDKFAQEIAKERLKAFEGRYNLLSGGFAKRFKEALETHNKEIKGVLVDLGVSSLQLDDDNRGFNFHSHTLDMRMDLESELNAQKVINSYPIVALEKIFRDYGEIKEYKKIAHKIAERRAKKPFKNAKDLSEFLSSFSKNKKIHPATLVFQAVRIEVNSELEELKEFLQCARNLKGAILCVISFHSLEDALVKNAFKDYAKNCICDPSSFKCACSNNHALGEILTKKPITPSPEEIKNNRRSRSAKMRVFQFKPLEHHHHHH | not soluble
